Reference: US20250002564A1 (HOSPITAL FOR SICK CHILDREN, published 2025)
Like-named read-outs stand apart in the source and are kept apart here.

Legend:
[1] = biological target: T1, SARS-CoV-2 receptor binding domain (RBD), wild type, His-tagged (SARS-CoV-2, UniProt P0DTC2 319-541); experiment: method and format not given
T1 construct: domain: RBD; also called His-tagged RBD; BEI NR52309

[2] = biological target: T1, SARS-CoV-2 receptor binding domain …; experiment: method and format not given; remark: listed apart in the source
[3] = biological target: T1, SARS-CoV-2 receptor binding domain …; experiment: BLI competition on His-tagged RBD, after 1st Ab 46
[4] = biological target: T1, SARS-CoV-2 receptor binding domain …; experiment: BLI competition on His-tagged RBD, after 1st Ab 52
[5] = biological target: T1, SARS-CoV-2 receptor binding domain …; experiment: BLI competition on His-tagged RBD, after 1st Ab 80
[6] = biological target: T1, SARS-CoV-2 receptor binding domain …; experiment: BLI competition on His-tagged RBD, after 1st Ab 82
[7] = biological target: T1, SARS-CoV-2 receptor binding domain …; experiment: BLI competition on His-tagged RBD, after 1st Ab 236
[8] = biological target: T1, SARS-CoV-2 receptor binding domain …; experiment: BLI competition on His-tagged RBD, after 1st Ab 298
[9] = biological target: T1, SARS-CoV-2 receptor binding domain …; experiment: BLI competition on His-tagged RBD, after 1st Ab 324

Binder | Kd [1] [nM] | Kd [2] [nM] | RBD binding of 2nd Ab after 1st Ab (heat map) [3] | RBD binding of 2nd Ab after 1st Ab (heat map) [4] | RBD binding of 2nd Ab after 1st Ab (heat map) [5] | RBD binding of 2nd Ab after 1st Ab (heat map) [6] | RBD binding of 2nd Ab after 1st Ab (heat map) [7] | RBD binding of 2nd Ab after 1st Ab (heat map) [8] | RBD binding of 2nd Ab after 1st Ab (heat map) [9]
mAb 46 (antibody, V domains shown, also called IgG 46; Antibody 46) VH: EVQLLESGGGLVQPGRSLRLSCAASGFTFSSYAMSWVRQAPGKGLEWVSTIYSGGSTYYADSVKGRFTISRDNSKNTLYLQMNSLRAEDTAVYYCARGDSRDAFDIWGQGTMVTVSS VL: DIQMTQSPSSLSASVGDRVTITCRASQSISSWLAWYQQKPGKAPKLLIYDASNLETGVPSRFSGSGSGTDFTLTISSLQPEDFATYYCQQSYSTPFTFGPGTKVDIKR | 83 | 83 | 0.2 | 0.2 | 1.3 | 1.2 | 1.7 | 1.7 | 1.7
mAb 82 (antibody, V domains shown, also called IgG 82; Antibody 82) VH: QVQLVQSGAEVKKPGASVKVSCKASGGSFSTSAFYWVRQAPGQGLEWMGWINPYTGGTNYAQKFQGRVTMTRDTSTSTVYMELSSLRSEDTAVYYCARSRALYGSGSYFDYWGQGTLVTVSS VL: DIQMTQSPSSLSASVGDRVTITCRASQVISNYLAWYQQKPGKAPKLLIYDASNLETGVPSRFSGSGSGTDFTLTISSLQPEDFATYYCQQSFSPPPTFGQGTRLEIKR | 206 | 206 | 1.4 | 0.6 | 0.6 | 0.4 | 0.6 | 0.5 | 0.8
mAb 324 (antibody, V domains shown, also called IgG 324; Antibody 324) VH: QVQLVQSGAEVKKPGASVKVSCKASGGTFNNYGISWVRQAPGQGLEWMGWMNPNSGNTGYAQKFQGRVTMTRDTSTSTVYMELSSLRSEDTAVYYCARVGDYGDYIVSPFDLWGRGTLVTVSS VL: DIQMTQSPSSLSASVGDRVTITCRASQSITTYLNWYQQKPGKAPKLLIYDASNLETGVPSRFSGSGSGTDFTLTISSLQPEDFATYYCQQSYSTPPTFGQGTKVEIKR | 111 | 111 | 1.2 | 1 | 0.1 | 0.2 | 0.3 | 0.2 | 0.4
mAb 108 (antibody, V domains shown) VH: QVQLVQSGAEVKKPGASVKVSCKASGYIFSRYAIHWVRQAPGQGLEWMGWMNPISGNTDYAPNFQGRVTMTRDTSTSTVYMELSSLRSEDTAVYYCAKDGSQLAYLVEYFQHWGQGTLVTVSS VL: DIQMTQSPSSLSASVGDRVTITCRASQVITNNLAWYQQKPGKAPKLLIYDASTLETGVPSRFSGSGSGTDFTLTISSLQPEDFATYYCQQSYTFPYTFGQGTKVEIKR | 72 | 72 |  |  |  |  |  |  | 
mAb 349 (antibody, V domains shown, also called IgG 349; Antibody 349) VH: EVQLLESGGGLVQPGGSLRLSCAASGFTFSNYGMHWVRQAPGKGLEWVSGISSAGSITNYADSVKGRFTISRDNSKNTLYLQMNSLRAEDTAVYYCAGNHAGTTVTSEYFQHWGQGTLVTVSS VL: DIQMTQSPSSLSASVGDRVTITCRASQSISSWLAWYQQKPGKAPKLLIYDTSNLETGVPSRFSGSGSGTDFTLTISSLQPEDFATYYCQQSYTTPWTFGQGTRLEIKR | 74 | 74 |  |  |  |  |  |  | 
mAb 64 (antibody, V domains shown, also called IgG 64; Antibody 64) VH: EVQLLESGGGLVQPGGSLRLSCAASGFPFSQHGMHWVRQAPGKGLEWVSAIDRSGSYIYYADSVKGRFTISRDNSKNTLYLQMNSLRAEDTAVYYCARDTYGGKVTYFDYWGQGTLVTVSS VL: DIQMTQSPSSLSASVGDRVTITCRASQGISSHLAWYQQKPGKAPKLLIYDASNLETGVPSRFSGSGSGTDFTLTISSLQPEDFATYYCQQTYSTPWTFGQGTKVEIKR | 97 | 97 |  |  |  |  |  |  | 
mAb 158 (antibody, V domains shown, also called IgG 158; Antibody 158) VH: QVQLVQSGAEVKKPGASVKVSCKASGYTFTGYYMHWVRQAPGQGLEWMGWINPLNGGTNFAPKFQGRVTMTRDTSTSTVYMELSSLRSEDTAVYYCARDPGGSYSNDAFDIWGQGTLVTVSS VL: DIQMTQSPSSLSASVGDRVTITCRASQSISRYLNWYQQKPGKAPKLLIYDASNLESGVPSRFSGSGSGTDFTLTISSLQPEDFATYYCQQANSFPLTFGGGTKVDIKR | 172 | 172 |  |  |  |  |  |  | 
mAb 56 (antibody, V domains shown, also called IgG 56; Antibody 56) VH: QVQLVQSGAEVKKPGASVKVSCKASGYTFTSYGISWVRQAPGQGLEWMGWISAYNGNTNYAQKLQGRVTMTRDTSTSTVYMELSSLRSEDTAVYYCARDIGPIDYWGQGTLVTVSS VL: DIQMTQSPSSLSASVGDRVTITCRASQGISSYLAWYQQKPGKAPKLLIYDASNLQSGVPSRFSGSGSGTDFTLTISSLQPEDFATYYCQQANSFPSTFGQGTKVEIKR | 23 | 23 |  |  |  |  |  |  | 
mAb 178 (antibody, V domains shown, also called IgG 178; Antibody 178) VH: QVQLVQSGAEVKKPGASVKVSCKASGYTFTDYHMHWVRQAPGQGLEWMGWINPNSGGTNYAQKFQGRVTMTRDTSTSTVYMELSSLRSEDTAVYYCARDISSWYEITKFDPWGQGTLVTVSS VL: EIVMTQSPATLSVSPGERATLSCKASQSVSGTYLAWYQQKPGQAPRLLIYGASTRATGIPARFSGSGSGTEFTLTISSLQSEDFAVYYCLQTHSYPPTFGQGTKVEIKR | 72 | 72 |  |  |  |  |  |  | 
mAb 52 (antibody, V domains shown, also called IgG 52; Antibody 52) VH: QVQLVQSGAEVKKPGSSVKVSCKASGYTFTSYGISWVRQAPGQGLEWMGGIIPMFGTTNYAQKFQGRVTITADKSTSTAYMELSSLRSEDTAVYYCARDRGDTIDYWGQGTLVTVSS VL: DIQMTQSPSSLSASVGDRVTITCRASQGISNNLNWYQQKPGKAPKLLIYAASSLESGVPSRFSGSGSGTDFTLTISSLQPEDFATYYCQQGNGFPLTFGPGTKVDIKR |  |  | 0.5 | 0.4 | 1.3 | 0.8 | 1.5 | 1.4 | 1.5
mAb 128 (antibody, V domains shown) VH: QVQLVQSGAEVKKPGASVKVSCKASGYTFTHYYMHWVRQAPGQGLEWMGIINPSSSSASYSQKFQGRVTMTRDTSTSTVYMELSSLRSEDTAVYYCARDGRYGSGSYPFDYWGQGTLVTVSS VL: DIQMTQSPSSLSASVGDRVTITCRASQNISRYLNWYQQKPGKAPKLLIYDASNLETGVPSRFSGSGSGTDFTLTISSLQPEDFATYYCQQANGFPPTFGQGTKLEIKR | 57 | 57 |  |  |  |  |  |  | 
mAb 254 (antibody, V domains shown, also called IgG 254; Antibody 254) VH: EVQLLESGGGLVQPGGSLRLSCAASGFTFSSSAMHWVRQAPGKGLEWVSAIGTGGDTYYADSVKGRFTISRDNSKNTLYLQMNSLRAEDTAVYYCAREGDGYNFYFDYWGQGTLVTVSS VL: DIQMTQSPSSLSASVGDRVTITCRASQGISSYLAWYQQKPGKAPKLLIYDASSLQIGVPSRFSGSGSGTDFTLTISSLQPEDFATYYCLQSYSTPPWTFGQGTKVEIKR | 127 | 127 |  |  |  |  |  |  | 
mAb 120 (antibody, V domains shown, also called IgG 120; Antibody 120) VH: QVQLVQSGAEVKKPGASVKVSCKASGYTFTSYDINWVRQAPGQGLEWMGMIDPSGGSTSYAQKFQGRVTMTRDTSTSTVYMELSSLRSEDTAVYYCAKDFGGGTRYDYWYFDLWGRGTLVTVSS VL: EIVMTQSPATLSVSPGERATLSCRASQSVSSRYLAWYQQKPGQAPRLLIYGASTRATGIPARFSGSGSGTEFTLTISSLQSEDFAVYYCQQYYTTPRTFGQGTRLEIKR | 24 | 24 |  |  |  |  |  |  | 
mAb 160 (antibody, V domains shown, also called IgG 160; Antibody 160) VH: QVQLVQSGAEVKKPGASVKVSCKASGYTFTGHDMHWVRQAPGQGLEWMGIINPSGGSTSYAQKFQGRVTMTRDTSTSTVYMELSSLRSEDTAVYYCARANSLRYYYGMDVWGQGTMVTVSS VL: DIQMTQSPSSLSASVGDRVTITCRASQSVSSWLAWYQQKPGKAPKLLIYAASSLQSGVPSRFSGSGSGTDFTLTISSLQPEDFATYYCQQGYTTPYTFGQGTKLEIKR | 7.7 | 7.7 |  |  |  |  |  |  | 
